We go through 41 sequences from the nanobody polyreactivity screen of Harvey et al. (2022).

The series is described as follows: yeast display, Sf9 membrane polyspecificity reagent, FACS + sequencing; frameworks hold sequencing errors. The method in brief: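 A nanobody's polyreactivity label depends on the gate it was sorted from. Yeast display cells were stained with 10% biotinylated, detergent-solubilized Sf9 membrane reagent for 1 hour at 4 °C, enriched on streptavidin microbeads and sorted by FACS. The low and high (top ~1%) gates were set on anti-HA fluorescence for expression and streptavidin fluorescence for reagent binding.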
“QVQLVESGRGLVQAGGSLRLSCAASGFTFRNYAMGWYRQAPGKERELVAAITRRGGSTYYADSVKGRFTISRDNAKNTVYLQMNSLKTEDTAVYYCNADREVPWGKDNLDYWGQGTQVTVSS”: the “polyreactivity (PSR sort gate)” value was “high polyreactivity”. For “QVQLVESGRGLVQAGGSLRLSCAASGFTFRYYAMGWYRQAPGTERELVAAITYSGGGTYYADSVKGRFTISRDNANYTVYLQMNSLKPEDSAVYYCARRGRKAYAYWGQGTQVTVSS”, the “polyreactivity (PSR sort gate)” value is given as “high polyreactivity”. Consider “QVQLVESGRGLVQAGGSLRLSCAASGGTFSPYAMGWYSQGPGKDRELVASITGSGGSTYYADSVKGRFTISRGNATTTVNLQMTSLNPEDTAVYYCAAQGYWTYWPYLLRLYDYWGQGTQVTVSS”, for which the “polyreactivity (PSR sort gate)” value is on record as “low polyreactivity”.

On to “QVQLVESGRGLVQAGGSLRLSCAASGLILGVNVMGWYRQAPGKERELVAAISGGGRTYYADSVKGRFTISRDNAKNTVYLQMNSLKPDDTAVYYCATVRRRLSLTYDYWGQVTQVTVSS”, for which the “polyreactivity (PSR sort gate)” value is recorded as “high polyreactivity”. Take “QVQLVESGRGLVQAGGSLRLSCAASGRIFGIYAMGWHRQAPGKEMELVATITDGTITNYADSVKGRFTISRDNAKNTVYLQMNSLKPEDTAVYYCAAGTQAHAYVVRPIEMDYWGQGTQVTVSS”: the “polyreactivity (PSR sort gate)” value is listed as “low polyreactivity”. In the case of “QVQLVESGRGLVQAGGSLRLSCAASGRIFGRNTIGWYRQAPRKEREMVAVISFRGGSTYADSVKGRFTISRDNAKNTVYLQMNSLKPEDTAVYYCARTAYSTRPYRFDYWGQGTQVTVSS”, the “polyreactivity (PSR sort gate)” value is reported as “high polyreactivity”.

As to “QVQLVESGRGLVQAGGSLRLSCAASGRIFPFYAMGWYRQAPGKERELVAAISSSGGSTYYADSVKGRFTISRDNAKNTVYLQMNSLKPEDTAVYYCAATRNSDGMGYWGQGTLVTVSS”, the “polyreactivity (PSR sort gate)” value is on record as “low polyreactivity”.

In the case of “QVQLVESGRGLVQAGGSLRLSCAASGRIFRSYAMGWYIPAPGKERELFAAISRSGGSTYYADSVKGRFTISRDNGKNTVYLQMNSLKPEDTAVYYCASRYSLGTNSKFFAYGYWGQGTQVNVSS”, the “polyreactivity (PSR sort gate)” value was “high polyreactivity”. Next, “QVQLVESGRGLVQAGGSLRLSCAASGRTFGYYAMGWYRKAPGKERELVAASTYSGARTYYADSVKGRFTISRDNAKNTVYLQRNSLKPEDTAVYYCAADTYYDDGYYYWCQGTQVTVSS”: “high polyreactivity”; “QVQLVESGRGLVQAGGSLRLSCAASGRTFWYYAMGWYRQAPGKERELDARISSSGGSTYADSVKGRFTISRDNAKNTVYLHMNSLKPEDTAVYYCAADRHYWKADPSQGYQHYYWGQGTQVTVSS”: “high polyreactivity”; “QVQLVESGRGLVQAGGSLRLSCAASGRTFYSNAMGWYRQAPGKERELVAGINWSGVSTYYADSVKGRFTISRDNAKNTVYLQMNSLKPEDTAVYYCAADTYAGYNGNYWGQGTQVTVSS”: “high polyreactivity”.

With “QVQLVESGRGLVQAGGSLRLSCAASGSICGYYTMGWYRQAPGKERELVAAITSGGSTNYADSVKGRFTISRDNAKNTVYLQMNSLKPEDTAVYYCAKVSYYPWRYDYWGQGTQVTVSS”, the “polyreactivity (PSR sort gate)” value was “low polyreactivity”. Next, “QVQLVESGRGLVQAGGSLRLSCAASGSIFEINAMGWYRQAPGIERELVAAITGSGGSTHYADSVKGRFTISRDNAKNTVSLQMNSLKPEDTAVYYCAAVPRYQYGYWGQGTQVTVSS”: “low polyreactivity”; “QVQLVESGRGLVQAGGSLRLSCAASGSIFGGNGRGWSRQAPGKERELVAAITYSGGSTYYADSVKGRFTISRDNAKNTVYFQMNSLKPEDTAVYYCAKPSRVSIGYDYWGQGTQVTVSS”: “low polyreactivity”. The value for “QVQLVESGRGLVQAGGSLRLSCAASGSIFISYAKGWYRQAPGKERELVAAITWSGDSTYYADSVKGRFTISRDNAKNTVYLQMNSLKPEDTAVYYCAKGQSRSLIYGRYGYWGQGTQVTVSS” was “low polyreactivity”; that for “QVQLVESGRGLVQAGGSLRLSCAASGSIFRRYAMGWYRQAPGKERELVAGITRSGGNTYYADSVKGRFTISRDNAKNTVYLQMNSLKPEDTAVYYCAARHRYNIRTYDAWGQGTQVTVSS” was “high polyreactivity”.

In the case of “QVQLVESGRGLVQAGGSLRLSCAASGSNFRAYAMGWSRQAPGKERELVAAISIGGRTYYADSVKGRFTISRDNAKNTVYLQMNSLKPEDTAVYYCAAVRSYVKGGMYYWGQGTQVTVSS”, the “polyreactivity (PSR sort gate)” value is given as “low polyreactivity”. Next, “QVQLVESGRGLVQAGGSLRLSCAASGSTFGWYSMGWYRQAPGKERELVTAITSSGDSTYYADSVKGRFTISRDNAKNTVYLQMNSLKPEDTAVYYCAADYADLNDYWGQGTQVTVSS”: “low polyreactivity”; “QVQLVESGRGLVQAGGSLRLSCAASGSTFIPYVMGWYRKAPGKEREFVAAIRWSGGRTRYADSVKGRFTLSRDNAKNTVYLQMNSLKPEDTAVYYCAAYRLSKPFYKYDYWGQGTQVTVSS”: “high polyreactivity”. The value for “QVQLVESGRGLVQAGGSLRLSCAASGSTFRYNTMGSYRQAPGKERELVAAITGGGGSTYYADSVKGRFTISRDNAKNTVYLQMNSMKPEDTAVYYCATRSYALGYDYGGQGTQVTVSS” was “low polyreactivity”; that for “QVQLVESGRGLVQAGGSLRLSCAASGSTFSRYTMGWYRQAPGKERELVAAISYRGGSTYYADSVKGRFTISRDNAKNTVYLQMNSLKPEDTAVYYRAAEYRVEGSDYDYWGQGTQVTVSS” was “low polyreactivity”. As for “QVQLVESGRGLVQAGGSLRLSCAASGYIFVYNAMGWYRQAPGKERELVAAITDGGGSTYADSVKGRFTISRDNAKNTVYLQMMSLNPEDTADYYCAARYSDTTWYVLYYYWGQGTQVTVSS”, the “polyreactivity (PSR sort gate)” value is “low polyreactivity”.

With “QVQLVESGRGLVQAGGSLRLSCASSGRIFRYYDMGWYRQAPGKERDFVAAITRSGAITYYADSVKGRFTISRDNAKNTVYLQMNSLKPEDTAVYYCNADFQDRTYDYDYWGQGTQVTVSS”, the “polyreactivity (PSR sort gate)” value was “low polyreactivity”.

Take “QVQLVESGRGLVQAGGSLRLSCASSGTILERYVMGWYRQAPGKERELVAAITISRGSTYYADSVKGRFTISRDNAKNTVYLEMTRLKPEDTAVYYCAARNRYWGQGTKVTVSS”: the “polyreactivity (PSR sort gate)” value was “high polyreactivity”. Regarding “QVQLVESGRGLVQAGGSLRLSCAVSGSIGVYAMGWYRQAPGKERELVAAISKRGGSTRYADSVKGRFTISRDNAKNTVYLQMNSLKPEDTAVYYCAATGSVTGPRYAYDYWGQGTQVTVSS”, the “polyreactivity (PSR sort gate)” value is recorded as “high polyreactivity”. Consider “QVQLVESGRGLVQAGGSLRLSCPASGRTFSTNAMGWYRQAPGKEREFVAVISSSSGSTYYADSVKGRFTISRDNAKNTVYLQMNSLKPEDTAVYYCAAGYRYRVSYSVYEFYYWGQGTQVTVSS”, for which the “polyreactivity (PSR sort gate)” value is on record as “high polyreactivity”. On to “QVQLVESGRGLVQAGGSLRLSSAASGSTFVNYDMGWYRQATGKERELVAAITSSGDSTYYADSVKGRFTISRDNAKNTVYLQMNSLKPEDTAVYYCNRDDAGIMDYWGQGTQVTVSS”, for which the “polyreactivity (PSR sort gate)” value is “low polyreactivity”. With “QVQLVESGRGLVQAGVSLRLSCAASGFIFYDYAMGWYRPAPGTERELVAAISSGGSTNYADSVKGLFTISRDNAKNTVYLQMNSLKPEDTAVYYCAADVRSYATWKRDYDYWGQGTQVTVSS”, the “polyreactivity (PSR sort gate)” value is reported as “low polyreactivity”. As for “QVQLVESGRGLVQAGVSLRLSCAASGRIFTYYAMGWYRQAPGKERELVAAITTRGGRTRYADSVKGRFTISRDNAKITVYLQMNSLKPEDTAVYYCARGHSSVGPQYDYWGQGTQVTVSS”, the “polyreactivity (PSR sort gate)” value is given as “high polyreactivity”.

Take “QVQLVESGRGLVQAQGSLRLSCAASGRIFNYNAMGWYRQAPGNERELVAVISRRGGSTYYADSVKGRFTISRDYAKNTVYLQMNSLKPEDTAVYYCGADLPSYPYEYWGLGTQVTVSS”: the “polyreactivity (PSR sort gate)” value is “low polyreactivity”. Consider “QVQLVESGRGLVQEGGSLRLSCAASGRIFSAYAMGWYRQAPVKERELVAAITWSGANTDYADSVKGRFTISRDNAKNNVYLQMNSLKPEDTAVYYCNASVGRDSAYDYLGQGTQVTVSS”, for which the “polyreactivity (PSR sort gate)” value is “low polyreactivity”. With “QVQLVESGRGVVQAGGSLRLSRADSGIIFLDHAMGWYRQAPGKEWELVAGINGGGRTDYADSVQGRFTISRDNAKNTVYLQMNSLTPEDTAVYYCAAESSWYSPDVNFWGQGTQVTVSS”, the “polyreactivity (PSR sort gate)” value is given as “low polyreactivity”. In the case of “QVQLVESGVALVQAGGSLRLSCAASGSILYPYAMGWYRQAPGKERELVAAITKTDGSTYYADSVKWRFTISRDNAKNTVYLQMNSLTPEDTAVYCCNAKWTLRWYFPYWSEYDYWGQGTQVTVSS”, the “polyreactivity (PSR sort gate)” value is listed as “low polyreactivity”. Next, “QVQLVESGVCIVQAGGSLRLRCASSGSSLLNNAMGWYRQAPGKERELVAAITWSGGDTYYADSVKGRFTISRDNAKNTVYLQMNCLLQEDTAVYDCAADRYQWLTAYTDDLDHDYWGQGTQVTVSS”: “high polyreactivity”.

With “QVQLVESGVCLVQAGGSLRLSCAASGRIFYYYTMGWYRQAPGKERELVAAITSGGSTYYADSVKGSFTISRDNAKNTVYLQMNSLKPEDTAVYYCNAEFDDKYDYWGQGTQVTVSS”, the “polyreactivity (PSR sort gate)” value was “low polyreactivity”. Next, “QVQLVESGVCLVQAGGSLRLSCAATGSIFEYNAMGWYRQAHGKERELVAAITRGGNTYYADSVKGLFTISRDNAKNTVYLQMNSLKPEDTAVYYCAAVEWYGYPYYYWGQGTQVTVSS”: “low polyreactivity”; “QVQLVESGVCLVQSGGSLRLICAASGRIITPYTMGWYRQAPGKERELVATITWSGGSTYYADSVKGRFTISRDNSKNTVYLQMNSLKPEDTAVYYCAARQIYVWAEYDYWGQGTQVTVSS”: “low polyreactivity”; “QVQLVESGVGIVQAGGSLRLSCAASGSTLVYYDMGWYRQAPGKERELVATITGTDSTYYADSVKGRFTISRDNAKNTVYLQMNSLKPEDTADCAADRAGSRPDYDYWGQGTQVTVSS”: “low polyreactivity”. With “QVQLVESGVGLVESGGSLRLSCASSGSTFVYTAMCWYRQSPGKERELVAAISWSGGSTYYADSVKGRFTISRDNAKKTVYLQMNSQKPEDTAVYYCAADGNPPAAMDYRGQGTQVTVSS”, the “polyreactivity (PSR sort gate)” value is on record as “low polyreactivity”. On to “QVQLVESGVGLVKAGGSLRLSCATSGLILYRYVMGWYRQAAGKERQLVAAISSSGGRTYYADSVKGRFTISRDNAKNTVYLQMNSLKPEDTAVYYCAKRRSDARRGYDYLGQGTQVTVSS”, for which the “polyreactivity (PSR sort gate)” value is reported as “high polyreactivity”.

“QVQLVESGVGLVLAGGSLRLSCAASGRTFWSYAMGWYRKAPGKERELVAAITWSGTSTDYAVSVKGRFTISRDNAKNRVYLLMKSLKPEDTAVYYCAAIVYGQYRSRYYYWGQGTEVTVSS”: the “polyreactivity (PSR sort gate)” value is on record as “high polyreactivity”.
